According to patent publication US12599665B2, “Gene fusions for control of genetically modified cells” (A2 Biotherapeutics, Inc., priority 2020, dated 2026):

Assays:
HEK293T cells = experiment: Annexin V apoptosis assay in transfected HEK293T cells +/- 4OHT; type: cell-based, Human; conditions: for cell death observed: 1 uM 4OHT or solvent control; for inducibility of apoptosis with 4OHT: 200 nM or 1 uM 4OHT, ~18-24 hours
Procedure: (§1) Human Embryonic Kidney (HEK) 293T cells were transfected with 1 ug per 1E6 cells using Lipofectamine 3000 and incubated in DMEM+10% FBS+1% Pen/Strep media for 4 hours before adding 1 uM 4-hydroxytamoxifen (+4OHT) or solvent control (No 4OHT). The cells were incubated with 4OHT for 18-24 hours. The cells were then stained with Annexin V to detect apoptotic cells, as well as DAPI to detect dead cells.
HEK293T cells were transfected with varying amounts of DNA of a vector control (pLenti), with construct A tBID (lacking a LBD, C150, see FIG. 5B), or with C-ESR1 or D-ESR1 (FIG. 10, bottom), and assayed for apoptosis using either 200 nM OHT or 1 μM 4OHT.
To determine the effect of amount of DNA as well as 4OHT concentration on apoptosis induction, we titrated both the amount of DNA (2, 3, or 6 ug DNA per 1E6 cells) and the concentration of 4OHT. 500,000 cells HEK293T cells were plated in a 24-well plate. ˜2 hours after plating, appropriate amounts of DNA were transfected using Lipofectamine 3000 and incubated for 4 hours. Either ethanol solvent control, 200 nM 4OHT, or 1 uM 4OHT was added to the transfected cells then incubated for ˜18-24 hours. The cells were then stained as in Example 4. Intriguingly, C-ESR1 was not inducible in HEK293 Ts, unlike in Jurkat cells (Example 6, FIGS. 7 and 11A-B).

Jurkat cells = experiment: Annexin V / PI apoptosis assay in transfected Jurkat cells +/- 4OHT; type: cell-based; conditions: for inducible apoptosis with 4OHT / background apoptosis / killing: 1 ug DNA per 1E6 cells; for inducible apoptosis with 4OHT: 1 uM 4OHT vs solvent control, 18-24 hrs; for background apoptosis / killing: solvent control; for induction of apoptosis with 4OHT / background cell death: 2 ug DNA per 1E6 cells, 20 hours; for induction of apoptosis with 4OHT: 200 nM or 1 uM 4OHT; for background cell death: ethanol solvent control
Procedure: as §1, with “Jurkat immortalized T lymphocytes” for “Human Embryonic Kidney (HEK) 293T cells”, “Neon electroporation” for “Lipofectamine 3000”, “RPMI+20% FBS+0.1%” for “DMEM+10% FBS+1%”, “propidium iodide (PI)” for “DAPI”
Jurkat cells were transfected with 1 ug of DNA per 1E6 cells using Neon electroporation, treated +/−4OHT for 18-24 hrs, and stained with Annexin V to detect apoptotic cells, as well as PI to detect dead cells (FIG. 5A).
One possibility is that the BID α3 and α6 helices are necessary and sufficient for tBID function. Therefore, we made various truncations that included α3 and α6, as well as various other helices. Jurkat cells were transfected with 1 ug DNA per 1E6 cells, treated with 4OHT or solvent control, then stained as in Example 4. […] One exception was the ESR-D tBID fusion construct, which has the Bid α3, α6 and α7 helices (FIG. 6). 0.3 uM staurosporine (STP) and DMSO solvent control were included as controls.
Jurkat cells were transfected with 1 ug DNA per 1E6 cells, treated with 4OHT or solvent control, then stained as in Example 4. The fold change in apoptosis upon 4OHT addition was determined by dividing the percent Annexin V positive cells treated with 4OHT by the percent Annexin V positive cells treated with a solvent control (FIG. 8). The fold change was calculated from one experiment. As electroporation of empty vector always results in some background death of cells, percent Annexin V positive cells of pLenti was used as the background and subtracted from total percentage to obtain “background subtracted” fold change values.
To determine the effect of 4OHT concentration on apoptosis induction in Jurkat cells, Jurkat cells were transfected with 2 ug DNA per 1E6 cells. 4 hours post-transfection, either ethanol solvent control, 200 nM 4OHT, or 1 uM 4OHT was added to the transfected cells then incubated for 20 hours. The cells were then stained with Annexin V and PI to measure cell death.

primary T cells [1] = experiment: Caspase-3/7 Green time course of 4OHT-mediated death in transduced primary T cells; type: cell-based
Procedure: To characterize tamoxifen-induced killing activity in transfected Jurkat cells over time, Jurkat cells were transfected with 1 ug DNA per 1 E6 cells as described previously above. 24 hours post-transfection, Jurkat cells were harvested and resuspended in complete RPMI media containing 10% FBS, 1% Pen/Strep, and 5 uM Caspase-3/7 Green Reagent (Essen Bioscience 4440). The resuspended cells were plated onto poly-L-ornithine treated 384-well plates and left at room temperature for 30 minutes. Then, RPMI+10% FBS+1% Pen/Strep+5 uM Caspase-3/7 Green Reagent containing appropriate 2×4OHT or EtOH was added to the cells. Induction of apoptosis was measured using the Caspase-3/7 dye, which couples caspase-3/7 recognition motif with a DNA intercalating dye. Cells turn green if and only if caspase-3/7-mediated apoptosis occurs. The cells were imaged using the IncuCyte S3 Live-Cell Analysis System.
Primary T cells transduced with D-ESR1 were prepared similarly to Jurkat cells in Example 9 and 4OHT-mediated death was measured using the Caspase-3/7 Green Reagent as described in Example 9.

primary T cells [2] = experiment: Annexin V / PI apoptosis assay in transduced primary T cells +/- 4OHT; type: cell-based; conditions: lentiviral transduction, 20 hours
Procedure: To characterize tBID-ESR1 safety switch function in primary T cells, D504C cells were transduced with lentiviral constructs containing either C-ESR1 or D-ESR1. The cells were maintained and expanded in media containing 300 IU/mL IL-2. To induce apoptosis, 1E6 cells were resuspended in 1 mL of LymphoONE media containing 1% human serum and 1 uM 4OHT. As a solvent control, same volume of ethanol was added to the cells. 20 hours after 4OHT addition, cells were stained with Annexin V and PI to measure cell death as described in Example 9.

[3] = HEK293T, 1 ug per 1E6 cells, 18-24 hours
[4] = HEK293T, 2, 3, or 6 ug DNA per 1E6 cells

B1: full length Bid: full length Bid expressed alone in HEK293T cells (protein, UniProt P55957 1-195, looked up)
chain: MDCEVNNGSSLRDECITNLLVFGFLQSCSDNSFRRELDALGHELPVLAPQWEGYDELQTDGNRSSHSRLGRIEADSESQEDIIRNIARHLAQVGDSMDRSIPPGLVNGLALQLRNTSRSEEDRNRDLATALEQLLQAYPRDMEKEKTMLVLALLLAKKVASHTPSLLRDVFHTTVNFINQNLRTYVRSLARNGMD
modifications: full-length
notes: full length Bid expressed alone in HEK293T cells
cell death observed (HEK293T cells; [3]): negligible death

B2: D-ESR1: fusion protein SEQ ID NO: 5; tBID helices α3, α6 and α7 fused to the N-terminus of ESR1 LBD (protein)
chain: SQEDIIRNIARHLAQVGDSMDRSIPPGEKTMLVLALLLAKKVASHTPSLLRDVFHTTVNFINQNLGSKKNSLALSLTADQMVSALLDAEPPILYSEYDPTRPFSEASMMGLLTNLADRELVHMINWAKRVPGFVDLTLHDQVHLLECAWLEILMIGLVWRSMEHPGKLLFAPNLLLDRNQGKCVEGMVEIFDMLLATSSRFRMMNLQGEEFVCLKSIILLNSGVYTFLSSTLKSLEEKDHIHRVLDKITDTLIHLMAKAGLTLQQQHQRLAQLLLILSHIRHMSNKGMEHLYSMKCKNVVPLYDLLLEMLDAHRLHAPT
modifications: tBID fusion protein C3454 (D-ESR1)
notes: tBID helices α3, α6 and α7 fused to the N-terminus of ESR1 LBD
inducible apoptosis with 4OHT (Jurkat cells): showed inducible apoptosis | background apoptosis / killing (Jurkat cells): low background apoptosis | induction of apoptosis with 4OHT (Jurkat cells): consistently induced apoptosis | background apoptosis, Caspase-3/7 Green Reagent (primary T cells [1]): low background | inducible apoptosis, Caspase-3/7 Green Reagent (primary T cells [1]; 4OHT): inducible apoptosis is seen | inducible killing with 4OHT, Annexin V and PI (primary T cells [2]; 1 uM 4OHT): greatest inducible killing | background cell death, Annexin V and PI (primary T cells [2]; ethanol solvent control): low background | inducibility of apoptosis with 4OHT (HEK293T cells; [4]): increases the window of induction | inducibility of apoptosis with 4OHT (HEK293T cells; HEK293T, 2, 3, or 6 ug DNA per 1E6 cells, listed as C3454): retained activity across cell types | background apoptosis (HEK293T cells; HEK293T, 2, 3, or 6 ug DNA per 1E6 cells, ethanol solvent control): does not increase background

B3: ESR1-D: fusion protein SEQ ID NO: 4; ESR1 LBD fused to N-terminus of tBID with Bid α3, α6 and α7 helices (protein)
chain: MKKNSLALSLTADQMVSALLDAEPPILYSEYDPTRPFSEASMMGLLTNLADRELVHMINWAKRVPGFVDLTLHDQVHLLECAWLEILMIGLVWRSMEHPGKLLFAPNLLLDRNQGKCVEGMVEIFDMLLATSSRFRMMNLQGEEFVCLKSIILLNSGVYTFLSSTLKSLEEKDHIHRVLDKITDTLIHLMAKAGLTLQQQHQRLAQLLLILSHIRHMSNKGMEHLYSMKCKNVVPLYDLLLEMLDAHRLHAPTGSSQEDIIRNIARHLAQVGDSMDRSIPPGEKTMLVLALLLAKKVASHTPSLLRDVFHTTVNFINQNL
modifications: tBID fusion protein C3445 (ESR1-D)
notes: ESR1 LBD fused to N-terminus of tBID with Bid α3, α6 and α7 helices
inducible apoptosis with 4OHT (Jurkat cells): high inducibility | background apoptosis / killing (Jurkat cells): low background killing | induction of apoptosis with 4OHT (Jurkat cells): robustly induced at either 200 nM or 1 uM 4OHT | background cell death (Jurkat cells): relatively high background levels of cell death

B4: C150: truncated BID (tBID), a potent apoptosis inducer; construct A tBID lacking a LBD (protein, UniProt P55957 61-195, looked up)
BH3-interacting domain death …: GNRSSHSRLGRIEADSESQEDIIRNIARHLAQVGDSMDRSIPPGLVNGLALQLRNTSRSEEDRNRDLATALEQLLQAYPRDMEKEKTMLVLALLLAKKVASHTPSLLRDVFHTTVNFINQNLRTYVRSLARNGMD
modifications: BH3-interacting domain death agonist p15
cell death observed (HEK293T cells; [3]): significant death | Annexin V+ cells (HEK293T cells; HEK293T, 1 ug per 1E6 cells, regardless of the presence of tamoxifen, 18-24 hours): 60-70%

B5: C-ESR1: fusion protein SEQ ID NO: 7; tBID helices α3, α4, α5 and α6 fused to the N-terminus of ESR1 LBD (protein)
chain: MSQEDIIRNIARHLAQVGDSMDRSIPPGLVNGLALQLRNTSRSEEDRNRDLATALEQLLQAYPRDMEKEKTMLVLALLLAKKVASHTPGSKKNSLALSLTADQMVSALLDAEPPILYSEYDPTRPFSEASMMGLLTNLADRELVHMINWAKRVPGFVDLTLHDQVHLLECAWLEILMIGLVWRSMEHPGKLLFAPNLLLDRNQGKCVEGMVEIFDMLLATSSRFRMMNLQGEEFVCLKSIILLNSGVYTFLSSTLKSLEEKDHIHRVLDKITDTLIHLMAKAGLTLQQQHQRLAQLLLILSHIRHMSNKGMEHLYSMKCKNVVPLYDLLLEMLDAHRLHAPT
modifications: tBID fusion protein C3452 (C-ESR1)
notes: tBID helices α3, α4, α5 and α6 fused to the N-terminus of ESR1 LBD
inducible apoptosis with 4OHT (Jurkat cells): showed inducible apoptosis | inducibility of apoptosis with 4OHT (HEK293T cells; [4]): not inducible

B6: ESR1-C: fusion protein SEQ ID NO: 6; ESR1 LBD fused to N-terminus of tBID truncation C (protein)
chain: MKKNSLALSLTADQMVSALLDAEPPILYSEYDPTRPFSEASMMGLLTNLADRELVHMINWAKRVPGFVDLTLHDQVHLLECAWLEILMIGLVWRSMEHPGKLLFAPNLLLDRNQGKCVEGMVEIFDMLLATSSRFRMMNLQGEEFVCLKSIILLNSGVYTFLSSTLKSLEEKDHIHRVLDKITDTLIHLMAKAGLTLQQQHQRLAQLLLILSHIRHMSNKGMEHLYSMKCKNVVPLYDLLLEMLDAHRLHAPTGSSQEDIIRNIARHLAQVGDSMDRSIPPGLVNGLALQLRNTSRSEEDRNRDLATALEQLLQAYPRDMEKEKTMLVLALLLAKKVASHTP
modifications: tBID fusion protein C3443 (ESR1-C)
background cell death (Jurkat cells): relatively high background levels of cell death
